The data set “SEC-MALS” concerns the molecule itself. Kind of data set: SEC-MALS.
Data set [1] has as its target T1, FrzCDΔMA (DB-H1-H2) (Myxococcus xanthus, UniProt P43500 1-137, del138-417).
T1 sequence: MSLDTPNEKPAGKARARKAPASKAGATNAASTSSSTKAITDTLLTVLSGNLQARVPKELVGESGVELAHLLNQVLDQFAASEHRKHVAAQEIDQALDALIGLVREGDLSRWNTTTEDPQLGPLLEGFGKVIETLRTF
Put plainly: EMSA. (Mobility shift assays separate free from complexed probe on a gel.)

The target in data set [2] is T2, FrzCD (Myxococcus xanthus, UniProt P43500 1-417).
T2 sequence: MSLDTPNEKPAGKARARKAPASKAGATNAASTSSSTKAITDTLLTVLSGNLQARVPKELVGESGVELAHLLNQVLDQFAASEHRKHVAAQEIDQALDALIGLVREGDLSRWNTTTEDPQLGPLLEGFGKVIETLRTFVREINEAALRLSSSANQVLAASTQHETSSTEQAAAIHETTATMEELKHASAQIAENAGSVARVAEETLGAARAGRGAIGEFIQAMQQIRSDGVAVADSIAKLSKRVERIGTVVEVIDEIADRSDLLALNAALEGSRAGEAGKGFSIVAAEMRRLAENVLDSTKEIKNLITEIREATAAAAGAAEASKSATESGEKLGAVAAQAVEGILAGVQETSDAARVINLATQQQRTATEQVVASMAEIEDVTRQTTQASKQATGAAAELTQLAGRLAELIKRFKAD
Kind of data set: EMSA.

The target of data set [3] is T1, FrzCDΔMA (DB-H1-H2). Put plainly: EMSA. The source holds these as a separate data set.
Data set [4] deals with T3, FrzCDΔH1ΔH2 (Myxococcus xanthus, UniProt P43500 1-417, del31-137).
T3 sequence: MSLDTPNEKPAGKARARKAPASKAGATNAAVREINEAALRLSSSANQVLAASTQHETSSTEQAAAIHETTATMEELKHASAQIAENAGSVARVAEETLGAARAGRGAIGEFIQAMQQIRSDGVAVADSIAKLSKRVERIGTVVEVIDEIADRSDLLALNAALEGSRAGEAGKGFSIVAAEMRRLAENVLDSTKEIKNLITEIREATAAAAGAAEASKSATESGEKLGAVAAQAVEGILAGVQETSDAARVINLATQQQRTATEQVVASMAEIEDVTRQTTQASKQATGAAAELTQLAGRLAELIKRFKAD
Put plainly: BLI.

Data set [5] addresses T4, FrzCDΔH2 (DB-H1-MA) (Myxococcus xanthus, UniProt P43500 1-417, del84-137).
T4 sequence: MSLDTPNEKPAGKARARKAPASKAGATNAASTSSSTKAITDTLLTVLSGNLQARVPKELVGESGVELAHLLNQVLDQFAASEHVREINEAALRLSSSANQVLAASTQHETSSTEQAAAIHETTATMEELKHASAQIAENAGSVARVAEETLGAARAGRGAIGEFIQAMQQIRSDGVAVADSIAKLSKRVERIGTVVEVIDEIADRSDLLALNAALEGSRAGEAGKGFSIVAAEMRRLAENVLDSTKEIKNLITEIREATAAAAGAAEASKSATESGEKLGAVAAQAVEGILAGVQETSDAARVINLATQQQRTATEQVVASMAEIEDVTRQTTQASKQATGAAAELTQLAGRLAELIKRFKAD
Kind of data set: BLI. A general note: In BLI a coated tip is dipped into the sample, and binding shifts an interference pattern.

Data set [6] has as its target T5, FrzCDΔH1 (Myxococcus xanthus, UniProt P43500 1-417, del31-83).
T5 sequence: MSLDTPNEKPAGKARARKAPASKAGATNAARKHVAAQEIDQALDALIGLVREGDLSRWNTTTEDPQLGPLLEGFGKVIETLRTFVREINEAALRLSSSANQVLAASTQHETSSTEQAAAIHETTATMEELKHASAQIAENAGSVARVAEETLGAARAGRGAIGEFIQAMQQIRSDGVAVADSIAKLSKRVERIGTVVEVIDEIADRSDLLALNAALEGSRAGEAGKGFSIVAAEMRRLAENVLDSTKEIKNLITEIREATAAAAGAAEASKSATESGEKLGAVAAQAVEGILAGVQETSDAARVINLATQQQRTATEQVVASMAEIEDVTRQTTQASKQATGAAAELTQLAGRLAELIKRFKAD
Put plainly: BLI.

For data set [7], the target named is T2, FrzCD. Put plainly: BLI.
Data set [8] concerns the target T4, FrzCDΔH2 (DB-H1-MA). Put plainly: EMSA.
Data set [9] deals with T5, FrzCDΔH1. Put plainly: EMSA.
The target of data set [10] is T1, FrzCDΔMA (DB-H1-H2). Put plainly: SEC-MALS.
The target in data set [11] is T3, FrzCDΔH1ΔH2. Put plainly: EMSA.
Data set [12] has as its target T2, FrzCD. Put plainly: SEC-MALS. On the technique in general: SEC sorts molecules by how far they enter the pores of the column.

Here are results for ten molecules from publication doi:10.1101/2024.09.02.610768 (bioRxiv, 2024).

B1: FrzCD^ΔH2 (receptor, Myxococcus xanthus, UniProt P43500 1-417, looked up)
chain: T4 sequence
For orientation: stoichiometry N means a count of units in the complex or per binding partner. B1: the “stoichiometry N” value in “SEC-MALS” was 4.

B2: FrzCD^ΔMA (domain or fragment, Myxococcus xanthus, UniProt P43500 1-137, looked up)
chain: T1 sequence
As for B2, in “SEC-MALS”, the “stoichiometry N” value stood at 2.

B3: 8 bp DNA (dsDNA)
DNA 1: ACTGCAGT
DNA 2: ACTGCAGT
B3: the binding result with FrzCDΔMA (DB-H1-H2) [1] and with FrzCD [2] was “binds” in each case.

B4: FrzCD^ΔH1ΔH2 (receptor, Myxococcus xanthus, UniProt P43500 1-417, looked up)
chain: T3 sequence
On to B4, for which the “stoichiometry N” value in “SEC-MALS” is 4.

B5: 12 bp DNA (dsDNA)
DNA 1: CTCACTATAGGG
DNA 2: CCCTATAGTGAG
For B5, in the data set with FrzCDΔMA (DB-H1-H2) [3], the binding result is given as “binds”.

B6: 178 bp DNA (dsDNA)
DNA 1: GGATCGCATCTGCCTACATCCCCAGCTCCCGGTCGGTCCGCTCGGAACCTAGCCCGGGTCAAAGACCCGGGGTCTATGTTGACCCATTTGGTGGGGATGGGTCTAATTGGACCTGGCGTTTTTTCGCGCCATGGAAATGTCAAGGCCCGTGATTCCAGACTGTTGGGCAGGGAGTT
DNA 2: AACTCCCTGCCCAACAGTCTGGAATCACGGGCCTTGACATTTCCATGGCGCGAAAAAACGCCAGGTCCAATTAGACCCATCCCCACCAAATGGGTCAACATAGACCCCGGGTCTTTGACCCGGGCTAGGTTCCGAGCGGACCGACCGGGAGCTGGGGATGTAGGCAGATGCGATCC
As a reminder, the Kd is the concentration at which binding is half-saturated. Low readings indicate higher affinity, high ones lower affinity. As for B6, the Kd with FrzCDΔH1ΔH2 [4] came to 203 nM; with FrzCDΔH2 (DB-H1-MA) [5], 2640 nM; in the data set with FrzCDΔH1 [6], 2270 nM; with FrzCD [7] it was 1070 nM.

B7: 8-base poly-A ssDNA (ssDNA)
DNA: AAAAAAAA
Turning to B7, the binding result with FrzCD [2] is given as “binds”.

B8: FrzCD full-length (His6-tagged) (receptor, Myxococcus xanthus, UniProt P43500 1-417, looked up)
chain: T2 sequence
For B8, the “stoichiometry N” value in the data set “SEC-MALS” came to 2.

B9: FrzCD^ΔH1 (receptor, Myxococcus xanthus, UniProt P43500 1-417, looked up)
chain: T5 sequence
Take B9: the “stoichiometry N” value in the data set “SEC-MALS” worked out at 4.

B10: 35 bp DNA (dsDNA)
DNA 1: GTCACCTGCTCTAGCTAATAGACTGAGCCGAGGTG
DNA 2: CACCTCGGCTCAGTCTATTAGCTAGAGCAGGTGAC
With B10, the binding result with FrzCDΔH2 (DB-H1-MA) [8], with FrzCDΔH1 [9], with FrzCDΔMA (DB-H1-H2) [10], with FrzCDΔH1ΔH2 [11] and with FrzCD [12] was “binds” throughout.
